Data: publication PMC11388335

How the values were obtained:
[1] = biological target: PP1^Clover (PP1γ catalytic subunit fused to the FRET donor Clover) (human) (UniProt P36873); test: FRET or BRET; in vitro subunit exchange: SDS22-PP1^Clover-I3 (160 nM) with p97 (160 nM), p37 (480 nM), ATP (2 mM) and NIPP1^TAMRA (240 nM); p97 buffer + 2% BSA + 1 mM DTT, 30 °C; rise of acceptor/donor ratio
[2] = biological target: PP1^Clover (PP1γ catalytic subunit fused to the FRET donor Clover) (human) (UniProt P36873); test: FRET or BRET; binary complexes SDS22^TAMRA-PP1^Clover (SP) or PP1^Clover-I3^TAMRA (PI) lacking the other subunit, incubated with p97, p37, ATP and NIPP1 as in a3
[3] = biological target: PP1^Clover (PP1γ catalytic subunit fused to the FRET donor Clover) (human) (UniProt P36873); test: FRET or BRET; ternary complexes SDS22^TAMRA-PP1^Clover-I3 or SDS22-PP1^Clover-I3^TAMRA (160 nM); FRET while the complex is formed, lost with p97 (160 nM), p37 (480 nM), ATP (2 mM) and unlabeled NIPP1 (240 nM); p97 buffer + 2% BSA + 1 mM DTT, 30 °C
[4] = biological target: His-PP1γ^Clover (PP1 of the binary SP and NP complexes) (human) (UniProt P36873); test: FRET or BRET; binary complexes SDS22^TAMRA-PP1^Clover (SP) or PP1^Clover-I3^TAMRA (PI) lacking the other subunit, incubated with p97, p37, ATP and NIPP1 as in a3

rate constant of NIPP1 association after p97-p37-mediated release of PP1 (exponential fit of FRET) [1] [min⁻¹]	rate constant of p97-p37-mediated dissociation, binary complex without SDS22 (exponential fit of FRET) [2] [min⁻¹]	rate constant of p97-p37-mediated dissociation (exponential fit of FRET) [3] [min⁻¹]	rate constant of p97-p37-mediated dissociation, ternary complex (exponential fit of FRET) [3] [min⁻¹]	rate constant of dissociation with p97-p37, binary complex without I3 (exponential fit of FRET) [4] [min⁻¹]	Molecule
0.33					NIPP1^TAMRA (His-NIPP1-LPETGGG labeled by sortase with a TAMRA Strep-tag peptide) (from UniProt Q12972 1-351) (natural protein)
	0.0734	0.69	0.644		I3^TAMRA (His-I3-LPETGGG labeled by sortase with a TAMRA Strep-tag peptide) (from UniProt O60927 1-126) (natural protein)
		0.64	0.714	0.0003	SDS22^TAMRA (GGG-SDS22 labeled by sortase with a TAMRA Strep-tag peptide) (natural protein, TAMRA on the ligated peptide (TAMRA)-…) MAAERGAGQQQSQEMMEVDRRVESEESGDEEGKKHSSGIVADLSEQSLKDGEERGEEDPEEEHELPVDMETINLDRDAEDVDLNHYRIGKIEGFEVLKKVKTLCLRQNLIKCIENLEELQSLRELDLYDNQIKKIENLEALTELEILDISFNLLRNIEGVDKLTRLKKLFLVNNKISKIENLSNLHQLQMLELGSNRIRAIENIDTLTNLESLFLGKNKITKLQNLDALTNLTVLSMQSNRLTKIEGLQNLVNLRELYLSHNGIEVIEGLENNNKLTMLDIASNRIKKIENISHLTELQEFWMNDNLLESWSDLDELKGARSLETVYLERNPLQKDPQYRRKVMLALPSVRQIDATFVRF
